Values joined by “and” are separate entries in the source; they are usually repeats but may differ in a detail not shown here. Equal values may be shown once. “Also recorded” adds a separate entry of the source. Read-outs that look alike come from different tables or passages of the source.
Key:
influenza A (H1N1) virus = assay type: in vivo, ferrets; conditions: for inflammatory response of infected ferrets: topical administration
[1] = pH 5; cited from earlier work
[2] = system: acute OVA challenge mouse model of asthma; test: PAS staining for lung mucus in OVA mouse model of asthma; set-up: species or system BALB/c mice; conditions: in vivo
[3] = system: guinea pig model of allergic asthma; test: allergen-induced early asthmatic reaction (PenH) in conscious unrestrained guinea pigs; assay type: in vivo; conditions: for decrease of early asthmatic reaction (PenH) after OVA aerosol: OVA guinea pigs; for basal PenH: guinea pig, in vivo, 0.3 mg/kg
M2 muscarinic receptor = M2 muscarinic receptor (Homo sapiens, UniProt P08172); test: M2 muscarinic receptor signaling in chem-1 cells (intracellular calcium); assay type: cell-based; conditions: 0.4, 2 or 10 μM
[4] = system: acute OVA challenge mouse model of asthma; assay type: in vivo, BALB/c mice; conditions: 0.6 mg/kg intranasal one hour prior to each OVA challenge; day 31
[5] = system: acute OVA challenge mouse model of asthma; test: blood eosinophil counts in OVA mouse model of asthma; assay type: in vivo, BALB/c mice; conditions: 0.6 mg/kg intranasal
[6] = system: guinea pig model of allergic asthma; test: cell count and differentiation in broncho-alveolar lavage fluid of guinea pigs; assay type: in vivo
M3 muscarinic receptor = target: T1, M3 muscarinic receptor (Homo sapiens, UniProt P20309); test: M3 muscarinic receptor signaling in chem-1 cells (intracellular calcium); assay type: cell-based; conditions: 0.4, 2 or 10 μM
T1 construct: host or cells: chem-1 cells
T1 sequence (P20309 whole entry): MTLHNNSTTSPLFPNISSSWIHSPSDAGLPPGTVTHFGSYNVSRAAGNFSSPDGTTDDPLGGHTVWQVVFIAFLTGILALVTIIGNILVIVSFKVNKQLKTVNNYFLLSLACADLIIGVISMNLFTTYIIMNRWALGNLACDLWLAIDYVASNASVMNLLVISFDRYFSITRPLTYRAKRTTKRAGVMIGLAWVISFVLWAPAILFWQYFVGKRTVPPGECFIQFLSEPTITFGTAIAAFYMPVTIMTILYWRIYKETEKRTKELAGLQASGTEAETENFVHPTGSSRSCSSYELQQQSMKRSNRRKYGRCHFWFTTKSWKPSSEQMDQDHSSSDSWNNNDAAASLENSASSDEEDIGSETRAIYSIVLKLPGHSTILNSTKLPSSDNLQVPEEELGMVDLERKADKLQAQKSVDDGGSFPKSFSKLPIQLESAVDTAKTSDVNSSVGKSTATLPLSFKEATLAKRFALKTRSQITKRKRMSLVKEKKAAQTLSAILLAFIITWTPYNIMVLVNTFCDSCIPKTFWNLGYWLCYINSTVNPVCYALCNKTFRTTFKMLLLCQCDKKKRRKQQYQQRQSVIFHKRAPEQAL

Sequence of M2 muscarinic receptor (P08172 whole entry): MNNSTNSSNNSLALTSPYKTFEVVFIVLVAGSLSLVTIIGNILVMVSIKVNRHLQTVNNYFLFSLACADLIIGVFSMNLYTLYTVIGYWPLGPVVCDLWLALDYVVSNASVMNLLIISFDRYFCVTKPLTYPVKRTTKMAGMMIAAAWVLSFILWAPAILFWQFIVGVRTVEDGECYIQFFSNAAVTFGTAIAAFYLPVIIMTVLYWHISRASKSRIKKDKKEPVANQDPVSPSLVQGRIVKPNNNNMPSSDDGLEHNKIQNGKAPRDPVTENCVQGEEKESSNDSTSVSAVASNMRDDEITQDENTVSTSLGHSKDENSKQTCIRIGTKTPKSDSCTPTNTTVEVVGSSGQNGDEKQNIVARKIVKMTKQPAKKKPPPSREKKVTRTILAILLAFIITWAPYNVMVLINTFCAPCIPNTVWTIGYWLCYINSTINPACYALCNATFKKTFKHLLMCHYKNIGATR

B1: AR-AvCD: recombinant AR-AvCD sialidase fusion protein made from Construct #2 (FIG. 5, SEQ ID NOs: 18 & 19) (protein)
chain: MVKRKKKGGKNGKNRRNRKKKNPGDHPQATPAPAPDASTELPASMSQAQHLAANTATDNYRIPAITTAPNGDLLISYDERPKDNGNGGSDAPNPNHIVQRRSTDGGKTWSAPTYIHQGTETGKKVGYSDPSYVVDHQTGTIFNFHVKSYDQGWGGSRGGTDPENRGIIQAEVSTSTDNGWTWTHRTITADITKDKPWTARFAASGQGIQIQHGPHAGRLVQQYTIRTAGGAVQAVSVYSDDHGKTWQAGTPIGTGMDENKVVELSDGSLMLNSRASDGSGFRKVAHSTDGGQTWSEPVSDKNLPDSVDNAQIIRAFPNAAPDDPRAKVLLLSHSPNPRPWSRDRGTISMSCDDGASWTTSKVFHEPFVGYTTIAVQSDGSIGLLSEDAHNGADYGGIWYRNFTMNWLGEQCGQKPAEGADYGGIWYRNFTMNWLGEQCGQKPAE
With B1 the “reduction of mean AUC of nasal protein concentrations vs vehicle-treated infected animals” value (influenza A (H1N1) virus; 8 infected treated ferrets) was “approximately 40%”, the “mean AUC of nasal protein concentrations” value (influenza A (H1N1) virus; 8 infected treated ferrets that shed virus, vehicle 4.48) was 2.68 arbitrary units and the “reduction of AUC value for cell counts vs vehicle-treated infected animals” value (influenza A (H1N1) virus; in vivo) was “approximately 3 fold”. The “AUC value for inflammatory cell counts in nasal washes” value (influenza A (H1N1) virus; infected treated ferrets, vehicle 1965) was 674 arbitrary units, the “inflammatory response of infected ferrets” value (influenza A (H1N1) virus) was “reduces the inflammatory responses” and the “inflammatory response of infected ferrets” value (influenza A (H1N1) virus; listed as fusion protein) was “the inflammatory response was reduced”. The “number of inflammatory cells in the nasal washes” value (influenza A (H1N1) virus; vs vehicle-treated infected animals) was “significant reduction in the number of inflammatory cells”.

B2: A. viscosus: bacterial sialidase enzyme from Actinomyces viscosus (SEQ ID NO:12) (protein, listed as Actinomyces viscosus)
chain: MTSHSPFSRRRLPALLGSLPLAATGLIAAAPPAHAVPTSDGLADVTITQVNAPADGLYSVGDVMTFNITLTNTSGEAHSYAPASTNLSGNVSKCRWRNVPAGTTKTDCTGLATHTVTAEDLKAGGFTPQIAYEVKAVEYAGKALSTPETIKGATSPVKANSLRVESITPSSSQENYKLGDTVSYTVRVRSVSDKTINVAATESSFDDLGRQCHWGGLKPGKGAVYNCKPLTHTITQADVDAGRWTPSITLTATGTDGATLQTLTATGNPINVVGDHPQATPAPAPDASTELPASMSQAQHLAANTATDNYRIPAITTAPNGDLLISYDERPKDNGNGGSDAPNPNHIVQRRSTDGGKTWSAPTYIHQGTETGKKVGYSDPSYVVDHQTGTIFNFHVKSYDQGWGGSRGGTDPENRGIIQAEVSTSTDNGWTWTHRTITADITKDKPWTARFAASGQGIQIQHGPHAGRLVQQYTIRTAGGAVQAVSVYSDDHGKTWQAGTPIGTGMDENKVVELSDGSLMLNSRASDGSGFRKVAHSTDGGQTWSEPVSDKNLPDSVDNAQIIRAFPNAAPDDPRAKVLLLSHSPNPRPWSRDRGTISMSCDDGASWTTSKVFHEPFVGYTTIAVQSDGSIGLLSEDAHNGADYGGIWYRNFTMNWLGEQCGQKPAEPSPAPSPTAAPSAAPTEKPAPSAAPSAEPTQAPAPSSAPEPSAAPEPSSAPAPEPTTAPSTEPTPAPAPSSAPEQTDGPTAAPAPETSSAPAAEPTQAPTVAPSVEPTQAPGAQPSSAPKPGATGRAPSVVNPKATGAATEPGTPSSSASPAPSRNAAPTPKPGMEPDEIDRPSDGTMAQPTGGASAPSAAPTQAAKAGSRLSRTGTNALLILGLAGVAVVGGYLLLRARRSKN
In the case of B2, the stability in buffer [1] is given as “stable”.

B3: DAS181: fusion protein comprising a catalytic domain of a sialidase, and an anchoring domain (SEQ ID NO:21) (protein)
chain: MGDHPQATPAPAPDASTELPASMSQAQHLAANTATDNYRIPAITTAPNGDLLISYDERPKDNGNGGSDAPNPNHIVQRRSTDGGKTWSAPTYIHQGTETGKKVGYSDPSYVVDHQTGTIFNFHVKSYDQGWGGSRGGTDPENRGIIQAEVSTSTDNGWTWTHRTITADITKDKPWTARFAASGQGIQIQHGPHAGRLVQQYTIRTAGGAVQAVSVYSDDHGKTWQAGTPIGTGMDENKVVELSDGSLMLNSRASDGSGFRKVAHSTDGGQTWSEPVSDKNLPDSVDNAQIIRAFPNAAPDDPRAKVLLLSHSPNPRPWSRDRGTISMSCDDGASWTTSKVFHEPFVGYTTIAVQSDGSIGLLSEDAHNGADYGGIWYRNFTMNWLGEQCGQKPAKRKKKGGKNGKNRRNRKKKNP
In the case of B3, the “PAS staining of airway epithelium (lung mucus) vs OVA challenged mice” value [2] is reported as “statistically significant reduction in PAS staining; also recorded: significantly reduced PAS staining”, the “decrease of early asthmatic reaction (PenH) after OVA aerosol” value ([3]; treated on day 15, vs sodium sulfate) is reported as ~30% and the “decrease of early asthmatic reaction (PenH) after OVA aerosol” value ([3]; treated on day 20) is reported as “not on day 20”. The “basal PenH” value [3] was 0.25±0.01 and 0.28±0.01, the “basal PenH” value ([3]; listed as Fludase®) was 0.27±0.02 and 0.31±0.03 and the “effect on potency of agonist-mediated M2 receptor signaling” value (M2 muscarinic receptor) was “increased the potency of agonist-mediated M2 receptor signaling”. The “Penh at 48 mg/ml Mch vs OVA challenged mice” value [4] was “reduction in Penh”, the “blood eosinophils vs OVA challenged mice” value [5] was “significantly reduced blood eosinophils” and the “number of eosinophils in BAL fluid” value ([6]; guinea pig, in vivo) was “restore the number of eosinophils up to historical control levels”. The “number of lymphocytes in BAL fluid” value ([6]; guinea pig, in vivo) was “decreased”, the “number of all inflammatory cells (macrophages, lymphocytes, neutrophils and eosinophils)” value ([6]; inflammation caused by SOD or OVA) was “significantly decreased” and the “neutrophil influx into the lungs (BAL)” value ([6]; saline and OVA groups) was “completely prevented this influx”. The “total number of cells in BAL fluid” value ([6]; saline and OVA guinea pigs) was “decreases the total number of cells”, the “total number of macrophages in BAL fluid” value ([6]; treatment on day 15 and 20, saline and OVA guinea pigs) was “strongly decreased” and the “effect on potency of agonist-mediated M3 receptor signaling” value (M3 muscarinic receptor) was “decreased the potency of agonist-mediated M3 receptor signaling”.
